± gives the standard error. This sample holds only a part of the variants without activity.
B1: glmS ribozyme (parent)
chain: AUAAAAGCGCCAGAACUACAGAAAUGUAGUUGACGAGGAGGAGGUUUAUCGAAUUUUCGGCGGAUGCCUCCAAA

Experiments:
Details in all cases: with glucosamine-6-phosphate
[1] = variants of: B1; test: self-cleavage kobs at 160 uM GlcN6P; higher = faster cleavage; RNA array
Summary of the method: (§1)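 kcat and KM were obtained from weighted Michaelis–Menten fits across concentrations of kobs values. Those came from one- or two-exponential decay fits to per-tile medians normalised to baseline and to non-cleaving reference variants. The variants were barcoded ribozymes transcribed in situ by E. coli RNA polymerase on sequenced MiSeq chips and tracked through a hybridised Cy3 probe at 37 °C, with 40 μM to 10 mM glucosamine-6-phosphate in HEPES/KCl/Mg(OAc)2 buffer flowed in.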

[2] = variants of: B1; test: self-cleavage kobs at 640 uM GlcN6P; higher = faster cleavage; RNA array
Summary of the method: as §1

[3] = variants of: B1; test: self-cleavage kobs at 2500 uM GlcN6P; higher = faster cleavage; RNA array
Summary of the method: as §1

[4] = variants of: B1; test: self-cleavage kobs at 10000 uM GlcN6P; higher = faster cleavage; RNA array
Summary of the method: as §1

| Variant | self-cleavage kobs at 160 uM GlcN6P [1] | self-cleavage kobs at 640 uM GlcN6P [2] | self-cleavage kobs at 2500 uM GlcN6P [3] | self-cleavage kobs at 10000 uM GlcN6P [4] |
| --- | --- | --- | --- | --- |
| A12U A15C A42G | 0.00123 ± 0.0005 s⁻¹ | 0.00381 ± 0.0017 s⁻¹ | 0.0282 ± 0.014 s⁻¹ |  |
| A14G C61G | < 1e-05 s⁻¹ |  |  |  |
| A14G U54C G60C A64G C70G | < 1e-05 s⁻¹ | < 1e-05 s⁻¹ |  |  |
| G29A U46A A53U U56C | < 1e-05 s⁻¹ | < 1e-05 s⁻¹ |  |  |
| A14U U49C U57G C70G | 9.25e-05 ± 2.7e-05 s⁻¹ | 6.79e-05 ± 2.7e-05 s⁻¹ | 6.68e-05 ± 2.2e-05 s⁻¹ |  |
| A15C G32C A48C | < 1e-05 s⁻¹ |  |  |  |
| A14C G32C G35U U57A | < 1e-05 s⁻¹ | < 1e-05 s⁻¹ |  |  |
| A15G G38A G60U C70G | < 1e-05 s⁻¹ |  | < 1e-05 s⁻¹ |  |
| A14G A33G G60U | < 1e-05 s⁻¹ | < 1e-05 s⁻¹ | < 1e-05 s⁻¹ |  |
| G13U A42C U54A U55G | < 1e-05 s⁻¹ | < 1e-05 s⁻¹ | < 1e-05 s⁻¹ |  |
| A15U A42U G51A C67U | < 1e-05 s⁻¹ | < 1e-05 s⁻¹ |  | < 1e-05 s⁻¹ |
| U31C U69A | 4.12e-05 ± 1.4e-05 s⁻¹ |  | 5.91e-05 ± 1.4e-05 s⁻¹ |  |
| U30G C34A | < 1e-05 s⁻¹ | < 1e-05 s⁻¹ | < 1e-05 s⁻¹ |  |
| G13C A14U G32A | 0.000741 ± 0.00017 s⁻¹ |  | 0.00667 ± 0.0017 s⁻¹ |  |
| A15G G63A U69G | 4.54e-05 ± 2e-05 s⁻¹ | 0.000141 ± 4.8e-05 s⁻¹ |  |  |
| C16G A42G A53G C67G | 0.000151 ± 3.4e-05 s⁻¹ | 0.000268 ± 5.9e-05 s⁻¹ | 0.000323 ± 8.1e-05 s⁻¹ |  |
| A15C C16A C67U | 4.39e-05 ± 2.1e-05 s⁻¹ | 0.000115 ± 2.9e-05 s⁻¹ | 0.000111 ± 4e-05 s⁻¹ |  |
| A14U G43A G63U C68U | < 1e-05 s⁻¹ |  | < 1e-05 s⁻¹ |  |
| A14U C50U G51U | < 1e-05 s⁻¹ | < 1e-05 s⁻¹ | < 1e-05 s⁻¹ | < 1e-05 s⁻¹ |
| G13A G41C C67U | < 1e-05 s⁻¹ | < 1e-05 s⁻¹ | < 1e-05 s⁻¹ |  |
| A14C C34A A48C C61G | < 1e-05 s⁻¹ |  | < 1e-05 s⁻¹ | < 1e-05 s⁻¹ |
| U30A U56C G60U A64C | < 1e-05 s⁻¹ | < 1e-05 s⁻¹ |  |  |
| A33C G37A G63C | < 1e-05 s⁻¹ | < 1e-05 s⁻¹ | < 1e-05 s⁻¹ |  |
| A12U G13U A48U G51C U54G C71U | < 1e-05 s⁻¹ | < 1e-05 s⁻¹ | < 1e-05 s⁻¹ |  |

From the supplement of paper PMC7125110
